Key:
[1] = molecular target: FrpD_(43-271) protein (Neisseria meningitidis); assay: SAXS; beamline X33 EMBL, room temperature; FrpD 1–9 mg/ml, FrpD-FrpC_(1-414) complex 1–5 mg/ml; molecular mass from the Porod volume
[2] = molecular target: FrpD_(43-271) protein (Neisseria meningitidis); assay: cross-linking; FrpD-FrpC_(1-414) complex (1 mg/ml, 14 μM) with a 1:1 mixture of d0/d4 BS2G, 30 min; 70-kDa band digested with trypsin, nano-ESI-FTICR mass spectrometry
[3] = molecular target: FrpD_(43-271) protein (Neisseria meningitidis); assay: SEC; Superdex 200 HR column; free proteins and an equimolar mixture of purified FrpD and FrpC_(1-414)

Measured: stoichiometry N

B1: FrpC_(1-414), the N-terminal domain of FrpC (domain or fragment)
chain: MNEGEVVLTPEQIQTLRGYASRGDTYGGWRYLANLGDRYADNAAAIVGKDTNLNGLNLWMKKGVENLWDDTVGKKTRLEKFDRVALQHFSQYVDLINKNNGRLPNTSEIERSYYKAVTYHGVSSSAAIDLVINRSLPDMADGYWALGLGIEAERIHNEQAVNNPNGSERDNRKQLISALDKGFDGSFKEKHFTFLQSVMMDLTKLGVEYTIDGWQKIGGWGNGIINDLYKSVVKREWTGIFEIVNNNIKQGNEAFKNEINSLVHDMKAAGKEFGDDLNTQWNNLTQAAEIIYNDIVDNTSQGIEKGVKAIKELSEKMKNAASDLADGSAEKAKQVVEDLAQAAKEAYENAKSTAEKAAQAAREFFKGLPSFKDLAEKFRDLFPNPEGWIDDGHQCFAPWVKETKKRNGKYHVYD
1: all assays above
